Earlier results on one substance are cited in paper PMC7553146.

As usually defined, the pKa is the pH at which an ionisable group is half protonated.

In one series the target is Cys145 (UniProt position 3385, FLNGSCGSVGF).
Another series deals with His41 (UniProt position 3281, VYCPRHVICTA).

Take “3C-like main protease (3CL Mpro, nsp5) (Severe acute respiratory syndrome coronavirus (SARS-CoV))”: the results for the pKa in the series with Cys145 and with His41 were 8.0 ± 0.3 and 6.3 ± 0.1, respectively.
